{"source": "patent US6190659A", "about": "“Bacterial plasmin binding protein and methods of use thereof” (priority 1996, dated 2001)", "system": "O=C(O)C(CO)OP(=O)(O)O", "experiment": "Enolase single enzyme assay: conversion of 2-phosphoglycerate to phosphoenolpyruvate, absorbance at 240 nm", "type": "biochemical", "conditions": "7.7 mM KCl", "from_the_text": "FIG. 7: Michaelis-Menten plot depicting the change in absorbance at 240 nm/minute as a function of the concentration of 2-phosphoglycerate (mM) as catalyzed by the plasmin binding protein. The change in absorbance is due to the conversion of 2-phosphoglycerate to phosphoenolpyruvate. Conditions as described in Example 1.\nFIG. 8: Double-reciprocal plot depicting the change in the reciprocal of the absorbance at 240 nm/minute as a function of the reciprocal of the concentration of 2-phosphoglycerate (mM) as catalyzed by the plasmin binding protein. The change in absorbance is due to the conversion of 2-phosphoglycerate to phosphoenolpyruvate. Conditions as described in Example 1.\nThe molecular weight of the plasmin binding protein for one particular embodiment of the present invention has been determined to be approximately 45 kDa by SDS-PAGE.\n(b) For the kinetic studies, the single enzyme assay was used, involving only the conversion of 2-phosphoglycerate to phosphoenolpyruvate by enolase. This simpler reaction avoids possible interactions of the effectors with the other enzymes. The reaction was performed at 30° C. in 100 mM HEPES buffer, pH 7.0, containing 10 mM MgSO4, 3.2 mM EDTA and 7.7 mM KCl and varying concentrations of 2-phosphoglycerate (0.19-7.5 mM). The change in absorbance/min was monitored at 240 nm. […] Michaelis-Menten and Lineweaver-Burke plots were drawn from the data obtained using 5 μg of SEN and varying concentrations of 2-phosphoglycerate (FIGS. 7 and 8). […] A concentration-dependent increase in the enolase activity was also found for the intact, washed streptococci (FIG. 5).", "key": {"[1]": {"conditions": "other: 0.1 M Hepes pH 7.0, 10 mM MgSO4, 3.2 mM EDTA, 30° C."}, "[2]": {"conditions": "other: 30° C., 100 mM HEPES pH 7.0, 10 mM MgSO4, 3.2 mM EDTA, 5 μg SEN, 2-phosphoglycerate 0.19-7.5 mM, Michaelis-Menten and Lineweaver-Burke plots"}}, "data": [{"substance": "streptococcal surface enolase (SEN), 45 kDa plasmin binding protein purified from group A streptococci type M6 strain D471, N-terminal sequence SEQ ID NO: 1 (Streptococcus pyogenes MGAS10394)", "values": [{"measurement": "Km", "setting": "[1]", "result": 1500, "unit": "µM"}, {"measurement": "Vmax", "setting": "[1]", "result": "270 μmol per minute-mg protein"}, {"measurement": "Km", "setting": "[2]", "result": 1500, "unit": "µM"}, {"measurement": "Vmax", "setting": "[2]", "result": "270 μmol per minute-mg protein"}]}]}
